{"source": "paper PMC6372068", "about": "(Nature, 2018)", "molecules": {"B1": {"name": "nascent MetRS (ribosome-nascent chain complexes) (natural protein)", "chain": "MSFLISFDKSKKHPAHLQLANNLKIALALEYASKNLKPEVDNDNAAMELRNTKEPFLLFDANAILRYVMDDFEGQTSDKYQFALASLQNLLYHKELPQQHVEVLTNKAIENYLVELKEPLTTTDLILFANVYALNSSLVHSKFPELPSKVHNAVALAKKHVPRDSSSFKNIGAVKIQADLTVKPKDSEILPKPNERNILITSALPYVNNVPHLGNIIGSVLSADIFARYCKGRNYNALFICGTDEYGTATETKALEEGVTPRQLCDKYHKIHSDVYKWFQIGFDYFGRTTTDKQTEIAQHIFTKLNSNGYLEEQSMKQLYCPVHNSYLADRYVEGECPKCHYDDARGDQCDKCGALLDPFELINPRCKLDDASPEPKYSDHIFLSLDKLESQISEWVEKASEEGNWSKNSKTITQSWLKDGLKPRCITRDLVWGTPVPLEKYKDKVLYVWFDATIGYVSITSNYTKEWKQWWNNPEHVSLYQFMGKDNVPFHTVVFPGSQLGTEENWTMLHHLNTTEYLQYENGKFSKSRGVGVFGNNAQDSGISPSVWRYYLASVRPESSDSHFSWDDFVARNNSELLANLGNFVNRLIKFVNAKYNGVVPKFDPKKVSNYDGLVKDINEILSNYVKEMELGHERRGLEIAMSLSARGNQFLQENKLDNTLFSQSPEKSDAVVAVGLNIIYAVSSIITPYMPEIGEKINKMLNAPALKIDDRFHLAILEGHNINKAEYLFQRIDEKKIDEWRAKYGGQQV"}, "B2": {"name": "nascent GluRS (ribosome-nascent chain complexes) (natural protein)", "chain": "MPSTLTINGKAPIVAYAELIAARIVNALAPNSIAIKLVDDKKAPAAKLDDATEDVFNKITSKFAAIFDNGDKEQVAKWVNLAQKELVIKNFAKLSQSLETLDSQLNLRTFILGGLKYSAADVACWGALRSNGMCGSIIKNKVDVNVSRWYTLLEMDPIFGEAHDFLSKSLLELKKSANVGKKKETHKANFEIDLPDAKMGEVVTRFPPEPSGYLHIGHAKAALLNQYFAQAYKGKLIIRFDDTNPSKEKEEFQDSILEDLDLLGIKGDRITYSSDYFQEMYDYCVQMIKDGKAYCDDTPTEKMREERMDGVASARRDRSVEENLRIFTEEMKNGTEEGLKNCVRAKIDYKALNKTLRDPVIYRCNLTPHHRTGSTWKIYPTYDFCVPIVDAIEGVTHALRTIEYRDRNAQYDWMLQALRLRKVHIWDFARINFVRTLLSKRKLQWMVDKDLVGNWDDPRFPTVRGVRRRGMTVEGLRNFVLSQGPSRNVINLEWNLIWAFNKKVIDPIAPRHTAIVNPVKIHLEGSEAPQEPKIEMKPKHKKNPAVGEKKVIYYKDIVVDKDDADVINVDEEVTLMDWGNVIITKKNDDGSMVAKLNLEGDFKKTKHKLTWLADTKDVVPVDLVDFDHLITKDRLEEDESFEDFLTPQTEFHTDAIADLNVKDMKIGDIIQFERKGYYRLDALPKDGKPYVFFTIPDGKSVNKYGAKK"}, "B3": {"name": "nascent FAS α subunit (ribosome-nascent chain complexes) (natural protein)", "chain": "MKPEVEQELAHILLTELLAYQFASPVRWIETQDVFLKDFNTERVVEIGPSPTLAGMAQRTLKNKYESYDAALSLHREILCYSKDAKEIYYTPDPSELAAKEEPAKEEAPAPTPAASAPAPAAAAPAPVAAAAPAAAAAEIADEPVKASLLLHVLVAHKLKKSLDSIPMSKTIKDLVGGKSTVQNEILGDLGKEFGTTPEKPEETPLEELAETFQDTFSGALGKQSSSLLSRLISSKMPGGFTITVARKYLQTRWGLPSGRQDGVLLVALSNEPAARLGSEADAKAFLDSMAQKYASIVGVDLSSAASASGAAGAGAAAGAAMIDAGALEEITKDHKVLARQQLQVLARYLKMDLDNGERKFLKEKDTVAELQAQLDYLNAELGEFFVNGVATSFSRKKARTFDSSWNWAKQSLLSLYFEIIHGVLKNVDREVVSEAINIMNRSNDALIKFMEYHISNTDETKGENYQLVKTLGEQLIENCKQVLDVDPVYKDVAKPTGPKTAIDKNGNITYSEEPREKVRKLSQYVQEMALGGPITKESQPTIEEDLTRVYKAISAQADKQDISSSTRVEFEKLYSDLMKFLESSKEIDPSQTTQLAGMDVEDALDKDSTKEVASLPNKSTISKTVSSTIPRETIPFLHLRKKTPAGDWKYDRQLSSLFLDGLEKAAFNGVTFKDKYVLITGAGKGSIGAEVLQGLLQGGAKVVVTTSRFSKQVTDYYQSIYAKYGAKGSTLIVVPFNQGSKQDVEALIEFIYDTEKNGGLGWDLDAIIPFAAIPEQGIELEHIDSKSEFAHRIMLTNILRMMGCVKKQKSARGIETRPAQVILPMSPNHGTFGGDGMYSESKLSLETLFNRWHSESWANQLTVCGAIIGWTRGTGLMSANNIIAEGIEKMGVRTFSQKEMAFNLLGLLTPEVVELCQKSPVMADLNGGLQFVPELKEFTAKLRKELVETSEVRKAVSIETALEHKVVNGNSADAAYAQVEIQPRANIQLDFPELKPYKQVKQIAPAELEGLLDLERVIVVTGFAEVGPWGSARTRWEMEAFGEFSLEGCVEMAWIMGFISYHNGNLKGRPYTGWVDSKTKEPVDDKDVKAKYETSILEHSGIRLIEPELFNGYNPEKKEMIQEVIVEEDLEPFEASKETAEQFKHQHGDKVDIFEIPETGEYSVKLLKGATLYIPKALRFDRLVAGQIPTGWNAKTYGISDDIISQVDPITLFVLVSVVEAFIASGITDPYEMYKYVHVSEVGNCSGSGMGGVSALRGMFKDRFKDEPVQNDILQESFINTMSAWVNMLLISSSGPIKTPVGACATSVESVDIGVETILSGKARICIVGGYDDFQEEGSFEFGNMKATSNTLEEFEHGRTPAEMSRPATTTRNGFMEAQGAGIQIIMQADLALKMGVPIYGIVAMAATATDKIGRSVPAPGKGILTTAREHHSSVKYASPNLNMKYRKRQLVTREAQIKDWVENELEALKLEAEEIPSEDQNEFLLERTREIHNEAESQLRAAQQQWGNDFYKRDPRIAPLRGALATYGLTIDDLGVASFHGTSTKANDKNESATINEMMKHLGRSEGNPVIGVFQKFLTGHPKGAAGAWMMNGALQILNSGIIPGNRNADNVDKILEQFEYVLYPSKTLKTDGVRAVSITSFGFGQKGGQAIVVHPDYLYGAITEDRYNEYVAKVSAREKSAYKFFHNGMIYNKLFVSKEHAPYTDELEEDVYLDPLARVSKDKKSGSLTFNSKNIQSKDSYINANTIETAKMIENMTKEKVSNGGVGVDVELITSINVENDTFIERNFTPQEIEYCSAQPSVQSSFAGTWSAKEAVFKSLGVKSLGGGAALKDIEIVRVNKNAPAVELHGNAKKAAEEAGVTDVKVSISHDDLQAVAVAVSTKK"}, "B4": {"name": "FAS α subunit, untagged, of the mature FAS (natural protein)", "chain": "B3 chain"}}, "key": {"[1]": {"molecular_target": "fatty acid synthase (FAS) α subunit, C-terminally fused to GFP (S. cerevisiae) (UniProt P19097)", "experiment": "co-IP"}, "[2]": {"molecular_target": "T1, glutamyl-tRNA synthetase GluRS, C-terminally fused to GFP (S. cerevisiae, UniProt P46655 1-708)", "T1 sequence": "B2 chain", "experiment": "selective ribosome profiling"}, "[3]": {"molecular_target": "T2, methionyl-tRNA synthetase MetRS, C-terminally fused to GFP (S. cerevisiae, UniProt P00958 1-751)", "T2 sequence": "B1 chain", "experiment": "selective ribosome profiling"}, "[4]": {"molecular_target": "T3, fatty acid synthase (FAS) β subunit, C-terminally fused to GFP (S. cerevisiae, UniProt P07149 1-2051)", "T3 sequence (P07149 whole entry, the tested form may be a part)": "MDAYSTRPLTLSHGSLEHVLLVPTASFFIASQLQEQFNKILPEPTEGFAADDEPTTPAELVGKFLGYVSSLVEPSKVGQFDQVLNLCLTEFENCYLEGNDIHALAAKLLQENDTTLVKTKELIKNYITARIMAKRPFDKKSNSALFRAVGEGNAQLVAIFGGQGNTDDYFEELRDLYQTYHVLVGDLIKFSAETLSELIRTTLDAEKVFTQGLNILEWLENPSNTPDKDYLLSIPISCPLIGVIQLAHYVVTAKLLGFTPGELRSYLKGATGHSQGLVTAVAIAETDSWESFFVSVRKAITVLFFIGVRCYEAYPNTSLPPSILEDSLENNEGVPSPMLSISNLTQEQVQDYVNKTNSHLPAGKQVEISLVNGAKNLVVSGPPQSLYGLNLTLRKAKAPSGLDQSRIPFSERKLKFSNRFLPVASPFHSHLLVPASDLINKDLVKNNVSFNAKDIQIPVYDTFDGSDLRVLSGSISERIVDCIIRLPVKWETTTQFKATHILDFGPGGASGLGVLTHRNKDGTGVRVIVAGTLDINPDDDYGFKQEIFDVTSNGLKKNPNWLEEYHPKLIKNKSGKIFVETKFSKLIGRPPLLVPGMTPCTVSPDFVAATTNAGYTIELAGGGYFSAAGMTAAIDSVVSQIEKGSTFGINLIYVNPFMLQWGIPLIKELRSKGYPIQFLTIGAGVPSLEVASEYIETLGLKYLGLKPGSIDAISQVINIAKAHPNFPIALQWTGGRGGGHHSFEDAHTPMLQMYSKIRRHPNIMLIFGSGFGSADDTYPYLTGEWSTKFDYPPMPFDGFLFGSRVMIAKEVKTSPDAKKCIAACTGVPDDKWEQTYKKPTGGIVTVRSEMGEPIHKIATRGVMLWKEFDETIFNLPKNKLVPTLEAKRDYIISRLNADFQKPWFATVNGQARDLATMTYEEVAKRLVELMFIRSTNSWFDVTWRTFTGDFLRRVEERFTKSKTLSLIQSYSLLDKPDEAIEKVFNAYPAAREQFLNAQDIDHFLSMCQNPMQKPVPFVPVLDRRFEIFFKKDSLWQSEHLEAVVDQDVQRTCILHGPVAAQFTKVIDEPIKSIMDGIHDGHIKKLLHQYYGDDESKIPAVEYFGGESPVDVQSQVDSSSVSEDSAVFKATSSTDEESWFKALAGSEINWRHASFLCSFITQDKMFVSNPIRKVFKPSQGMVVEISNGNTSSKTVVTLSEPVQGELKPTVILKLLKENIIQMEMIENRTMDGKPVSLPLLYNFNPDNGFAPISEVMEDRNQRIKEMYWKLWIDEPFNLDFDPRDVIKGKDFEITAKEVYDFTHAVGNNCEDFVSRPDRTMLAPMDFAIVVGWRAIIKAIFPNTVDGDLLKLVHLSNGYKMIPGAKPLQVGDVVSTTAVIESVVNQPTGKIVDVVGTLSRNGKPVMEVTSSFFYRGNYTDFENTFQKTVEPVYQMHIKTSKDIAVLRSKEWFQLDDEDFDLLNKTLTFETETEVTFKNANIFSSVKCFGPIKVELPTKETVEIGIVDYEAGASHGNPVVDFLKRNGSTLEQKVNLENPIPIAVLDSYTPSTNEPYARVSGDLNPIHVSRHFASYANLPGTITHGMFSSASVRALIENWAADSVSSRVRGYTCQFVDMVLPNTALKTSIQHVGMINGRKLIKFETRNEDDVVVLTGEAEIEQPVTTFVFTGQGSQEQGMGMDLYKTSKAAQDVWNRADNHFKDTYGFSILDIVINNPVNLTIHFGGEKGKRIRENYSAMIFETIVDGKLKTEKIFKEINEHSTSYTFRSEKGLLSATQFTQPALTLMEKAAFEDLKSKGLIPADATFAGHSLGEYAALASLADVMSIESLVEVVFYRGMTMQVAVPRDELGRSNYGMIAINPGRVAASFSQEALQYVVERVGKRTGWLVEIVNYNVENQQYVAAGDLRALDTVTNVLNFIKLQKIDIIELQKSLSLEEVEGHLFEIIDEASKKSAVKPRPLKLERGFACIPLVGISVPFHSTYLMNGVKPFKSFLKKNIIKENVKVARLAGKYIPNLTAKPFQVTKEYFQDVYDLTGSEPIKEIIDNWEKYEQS", "experiment": "selective ribosome profiling"}, "[5]": {"molecular_target": "T3, fatty acid synthase (FAS) β subunit, …", "experiment": "co-IP"}}, "data": [{"molecule": "FAS β subunit, untagged, of the mature FAS, P07149 1-2051", "values": [{"measurement": "stoichiometry N", "setting": "[1]", "result": 1}]}, {"molecule": "B1", "values": [{"measurement": "fold enrichment in footprints", "setting": "[2]", "result": "≥ 30", "unit": "fold"}]}, {"molecule": "B2", "values": [{"measurement": "fold enrichment in footprints", "setting": "[3]", "result": "≥ 30", "unit": "fold"}]}, {"molecule": "B3", "values": [{"measurement": "fold enrichment of selected footprints over total ribosome-protected footprints", "setting": "[4]", "result": "~40", "unit": "fold"}]}, {"molecule": "B4", "values": [{"measurement": "stoichiometry N", "setting": "[5]", "result": 1}]}]}
